Target: T1, androgen receptor (Homo sapiens, UniProt P10275)
T1 construct: expressed in transfected cells; host or cells: SH-SY5Y
T1 sequence (P10275 1-920): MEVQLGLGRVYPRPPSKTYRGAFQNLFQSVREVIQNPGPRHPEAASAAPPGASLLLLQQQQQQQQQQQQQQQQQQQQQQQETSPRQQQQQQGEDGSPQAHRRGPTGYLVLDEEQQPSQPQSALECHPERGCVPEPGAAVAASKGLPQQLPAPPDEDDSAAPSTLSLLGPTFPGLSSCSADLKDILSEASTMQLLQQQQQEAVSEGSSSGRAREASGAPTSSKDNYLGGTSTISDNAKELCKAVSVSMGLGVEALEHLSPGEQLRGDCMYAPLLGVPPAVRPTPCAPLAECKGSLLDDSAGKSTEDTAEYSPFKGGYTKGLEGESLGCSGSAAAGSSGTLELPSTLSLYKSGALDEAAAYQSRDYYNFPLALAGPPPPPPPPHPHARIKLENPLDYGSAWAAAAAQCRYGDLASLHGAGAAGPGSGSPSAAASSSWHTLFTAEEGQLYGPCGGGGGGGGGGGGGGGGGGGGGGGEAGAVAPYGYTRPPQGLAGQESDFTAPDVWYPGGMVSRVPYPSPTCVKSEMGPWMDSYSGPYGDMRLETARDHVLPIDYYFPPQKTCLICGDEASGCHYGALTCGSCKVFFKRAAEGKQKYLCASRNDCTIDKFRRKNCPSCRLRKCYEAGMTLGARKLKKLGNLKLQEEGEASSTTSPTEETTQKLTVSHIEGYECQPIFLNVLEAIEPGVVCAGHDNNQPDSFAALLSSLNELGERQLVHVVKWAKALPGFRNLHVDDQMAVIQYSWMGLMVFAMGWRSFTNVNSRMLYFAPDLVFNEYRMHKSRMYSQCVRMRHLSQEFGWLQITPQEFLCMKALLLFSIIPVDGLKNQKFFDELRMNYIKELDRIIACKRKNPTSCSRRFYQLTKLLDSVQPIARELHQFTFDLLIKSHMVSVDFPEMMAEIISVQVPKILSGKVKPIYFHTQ
Test: Co-activation of the androgen receptor signal (MMTV-luciferase reporter) in transfected SH-SY5Y cells
Format: cell-based
Conditions: SH-SY5Y cells transfected with 1 μg co-activator in CMX, MMTV-luciferase and pSG5AR; DHT for 24 hours; especially at low androgen concentrations of 10^−12-10^−10 M; vs CMX control plasmid
Procedure: The ARAP11-cDNA which codes for the ARAP11 fragment of amino acids 813-1,390, obtained by PCR, was cloned in the standard manner into the vector CMX and transfected with pSG5-AR and MMTV-luciferase in SH-SY5Y cells, also in the standard manner.
After 24 hours, the cells were treated with […] (DHT) as the androgen in the indicated concentrations. The transfected cells were harvested after another 24 hours, and the activity of the reporter gene luciferase was measured. In addition, the total quantity of cell protein was determined for the sake of normalization. One experiment and four measurements were conducted per transfection batch and substance concentration. The error range is given as the SD. The values of the corresponding controls without DHT were subtracted from all signals. The activity is expressed in relative units.

B1: ARAP11-cDNA: cDNA in vector CMX coding for amino acids 813-1,390 of ARAP11, co-activator for the human androgen receptor (protein)
chain: VIHALEKFTVYTLDIPVLFGVSTTSPEETCAQVIREAKRTAPSIVYVPHIHVWWEIVGPTLKATFTTLLQNIPSFAPVLLLATSDKPHSALPEEVQELFIRDYGEIFNVQLPDKEERTKFFEDLILKQAAKPPISKKKAVLQALEVLPVAPPPEPRSLTAEEVKRLEEQEEDTFRELRIFLRNVTHRLAIDKRFRVFTKPVDPDEVPDYVTVIKQPMDLSSVISKIDLHKYLTVKDYLRDIDLICSNALEYNPDRDPGDRLIRHRACALRDTAYAIIKEELDEDFEQLCEEIQESRKKRGCSSSKYAPSYYHVMPKQNSTLVGDKRSDPEQNEKLKTPSTPVACSTPAQLKRKIRKKSNWYLGTIKKRRKISQAKDDSQNAIDHKIESDTEETQDTSVDHNETGNTGESSVEENEKQQNASESKLELRNNSNTCNIENELEDSRKTTACTELRDKIACNGDASSSQIIHISDENEGKEMCVLRMTRARRSQVEQQQLITVEKALAILSQPTPSLVVDHERLKNLLKTVVKKSQNYNIFQLENLYAVISQCIYRHRKDHDKTSLIQKMEQEVENFSCSR
modifications: fetalbrain; ARAP11 fragment from amino acid residues 813- 1390
co-activation of the AR signal activity (luciferase reporter activity): strong co-activation of the AR signal activity

— patent publication US20030124508A1, “Method for testing the hormonal effect of substances” (priority 2001, published 2003)
